Patent US20200010563A1 (PROTHENA BIOSCIENCES, published 2020)

How the values were obtained:
[1] = biological target: T1, human MCAM domain 3 (amino acids 244-321) hFc construct (human, UniProt P43121 244-321); test: ForteBio BLI, MCAMhFc domains on anti-human IgG Fc sensors, antibody 5 ug/ml
T1 construct: One of the 'various MCAMhFc domains' immobilised on anti-human IgG Fc biosensors; also called MCAMhFc domain 3; not shown: human IgG Fc (hFc)
T1 sequence: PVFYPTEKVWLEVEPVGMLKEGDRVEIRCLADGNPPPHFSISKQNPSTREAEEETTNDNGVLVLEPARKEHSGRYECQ
From the text: The following protocol was used: ForteBio anti-human IgG Fc biosensors were used to immobilize various MCAMhFc domains including full length MCAMhFc protein on to biosensor surface. […] After loading these samples into a black 96 well plate, the Octet Red was programmed as follows: 60 seconds for baseline #1; 180 seconds for loading various domains; 60 seconds for baseline #2; 180 seconds for association of antibody to domain; and 240 seconds for dissociation of antibody from domain.
1. MCAMhFc final concentration @ 5 ug/ml [0342] […] 3. ForteBio anti-human IgG Fc Capture (AHC) biosensors for kinetics experiments, cat#18-5060 [0344] 4. Block 96 well plate from Greiner Bio-one, cat#655209 [0345] 5. ForteBio Octet Red machine [0346] 6. Fresh tissue culture medium, DMEM with 20% FCS, was used as buffer for dilution The results from these analyses are as follows.

[2] = biological target: T2, human MCAM V340A mutant (V5/HIS6) on BHK cells (human, UniProt P43121 24-646); test: shotgun mutagenesis, immunofluorescence on BHK cells
T2 sequence: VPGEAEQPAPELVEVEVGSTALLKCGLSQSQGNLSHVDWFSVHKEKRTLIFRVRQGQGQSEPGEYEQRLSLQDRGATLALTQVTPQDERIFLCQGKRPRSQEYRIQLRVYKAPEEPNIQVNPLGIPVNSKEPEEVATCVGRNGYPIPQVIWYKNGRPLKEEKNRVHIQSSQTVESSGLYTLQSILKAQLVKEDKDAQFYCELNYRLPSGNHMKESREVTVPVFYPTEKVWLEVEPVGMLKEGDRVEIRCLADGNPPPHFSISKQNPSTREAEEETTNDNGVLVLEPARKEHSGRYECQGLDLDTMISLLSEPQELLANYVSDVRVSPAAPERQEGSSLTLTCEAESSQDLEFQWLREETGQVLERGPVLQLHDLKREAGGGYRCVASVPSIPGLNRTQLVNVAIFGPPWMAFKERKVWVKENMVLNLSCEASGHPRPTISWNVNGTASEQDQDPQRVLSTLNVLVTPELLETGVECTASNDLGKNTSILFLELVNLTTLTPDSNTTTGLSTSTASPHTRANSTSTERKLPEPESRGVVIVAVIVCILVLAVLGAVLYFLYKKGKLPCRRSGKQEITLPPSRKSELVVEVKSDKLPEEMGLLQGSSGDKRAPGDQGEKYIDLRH
Experimental: (§1) The mutation library was assayed for surface expression (mouse sera binding) and monoclonal antibody binding, in triplicate. Each raw data point was background-subtracted and normalized to the wild type MCAM reactivity values. The mean monoclonal antibody binding value for each clone is plotted as a function of its mean surface expression value (FIG. 1, gray diamonds). Thresholds of <30% monoclonal antibody reactivity and >50% mouse sera binding were applied to identify clones (FIG. 1, black diamonds) that were negative for monoclonal antibody binding but positive for surface expression.
(§2) Residues involved in antibody binding were identified as those that were negative for monoclonal antibody binding (<30% WT) but positive for surface expression (>50% WT) (Table 4). The mean reactivity (and standard deviation) were determined for each critical residue.

[3] = biological target: T3, human MCAM C320A mutant (V5/HIS6) on BHK cells (human, UniProt P43121 24-646); test: shotgun mutagenesis library, immunofluorescence on BHK cells, triplicate; standard deviation in brackets
T3 sequence: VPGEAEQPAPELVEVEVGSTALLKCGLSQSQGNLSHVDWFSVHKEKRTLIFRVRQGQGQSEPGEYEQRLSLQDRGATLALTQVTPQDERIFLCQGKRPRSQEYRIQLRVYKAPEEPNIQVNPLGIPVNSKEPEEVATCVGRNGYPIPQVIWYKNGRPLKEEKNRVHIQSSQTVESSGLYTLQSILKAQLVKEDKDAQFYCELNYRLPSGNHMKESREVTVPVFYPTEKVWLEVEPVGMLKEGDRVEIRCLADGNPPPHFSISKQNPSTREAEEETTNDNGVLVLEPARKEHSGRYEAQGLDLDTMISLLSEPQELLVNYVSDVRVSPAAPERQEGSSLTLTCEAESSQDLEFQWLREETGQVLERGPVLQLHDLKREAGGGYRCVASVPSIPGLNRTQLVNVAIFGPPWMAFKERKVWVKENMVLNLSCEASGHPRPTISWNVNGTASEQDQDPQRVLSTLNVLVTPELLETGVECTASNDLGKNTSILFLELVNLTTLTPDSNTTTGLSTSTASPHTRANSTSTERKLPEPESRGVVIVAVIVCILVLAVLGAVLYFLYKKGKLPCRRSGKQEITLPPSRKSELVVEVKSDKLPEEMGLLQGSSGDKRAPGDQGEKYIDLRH
Experimental: as §1, §2

[4] = biological target: T4, human MCAM Y318A mutant (V5/HIS6) on BHK cells (human, UniProt P43121 24-646); test: as above
T4 sequence: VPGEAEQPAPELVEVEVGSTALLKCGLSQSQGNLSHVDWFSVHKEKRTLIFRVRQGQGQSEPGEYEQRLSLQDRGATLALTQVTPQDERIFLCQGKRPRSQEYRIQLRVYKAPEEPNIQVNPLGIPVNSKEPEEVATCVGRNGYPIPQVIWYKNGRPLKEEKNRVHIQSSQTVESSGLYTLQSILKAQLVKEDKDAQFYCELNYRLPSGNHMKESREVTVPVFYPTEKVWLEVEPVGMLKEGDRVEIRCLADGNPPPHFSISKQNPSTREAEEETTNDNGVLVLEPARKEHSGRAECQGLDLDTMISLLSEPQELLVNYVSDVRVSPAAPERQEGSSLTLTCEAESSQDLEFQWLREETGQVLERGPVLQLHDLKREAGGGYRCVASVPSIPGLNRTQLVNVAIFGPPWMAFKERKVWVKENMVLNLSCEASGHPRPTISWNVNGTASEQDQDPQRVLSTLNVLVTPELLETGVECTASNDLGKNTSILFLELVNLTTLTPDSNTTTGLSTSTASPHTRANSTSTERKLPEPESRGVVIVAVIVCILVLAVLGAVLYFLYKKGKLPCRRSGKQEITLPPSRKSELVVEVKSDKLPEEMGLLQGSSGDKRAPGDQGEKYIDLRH
Experimental: as §1, §2

[5] = biological target: T5, human MCAM C272A mutant (V5/HIS6) on BHK cells (human, UniProt P43121 24-646); test: as above
T5 sequence: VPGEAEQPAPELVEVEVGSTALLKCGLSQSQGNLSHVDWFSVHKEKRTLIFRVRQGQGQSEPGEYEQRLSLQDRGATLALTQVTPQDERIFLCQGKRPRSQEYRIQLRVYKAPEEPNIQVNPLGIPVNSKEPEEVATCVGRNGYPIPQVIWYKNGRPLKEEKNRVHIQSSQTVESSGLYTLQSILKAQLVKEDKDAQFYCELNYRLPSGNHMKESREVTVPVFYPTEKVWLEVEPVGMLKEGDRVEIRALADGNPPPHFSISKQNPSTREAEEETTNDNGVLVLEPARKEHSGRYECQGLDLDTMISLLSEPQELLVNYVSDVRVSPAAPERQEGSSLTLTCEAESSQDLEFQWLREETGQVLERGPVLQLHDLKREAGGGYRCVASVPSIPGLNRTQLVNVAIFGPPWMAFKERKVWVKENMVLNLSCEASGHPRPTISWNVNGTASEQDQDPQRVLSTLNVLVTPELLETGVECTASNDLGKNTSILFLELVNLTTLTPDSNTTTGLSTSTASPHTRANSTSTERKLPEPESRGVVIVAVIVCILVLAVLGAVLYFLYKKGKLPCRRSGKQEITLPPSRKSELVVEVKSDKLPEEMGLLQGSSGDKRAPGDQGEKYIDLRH
Experimental: as §1, §2

[6] = biological target: T6, human MCAM W377A mutant (V5/HIS6) on BHK cells (human, UniProt P43121 24-646); test: as above
T6 sequence: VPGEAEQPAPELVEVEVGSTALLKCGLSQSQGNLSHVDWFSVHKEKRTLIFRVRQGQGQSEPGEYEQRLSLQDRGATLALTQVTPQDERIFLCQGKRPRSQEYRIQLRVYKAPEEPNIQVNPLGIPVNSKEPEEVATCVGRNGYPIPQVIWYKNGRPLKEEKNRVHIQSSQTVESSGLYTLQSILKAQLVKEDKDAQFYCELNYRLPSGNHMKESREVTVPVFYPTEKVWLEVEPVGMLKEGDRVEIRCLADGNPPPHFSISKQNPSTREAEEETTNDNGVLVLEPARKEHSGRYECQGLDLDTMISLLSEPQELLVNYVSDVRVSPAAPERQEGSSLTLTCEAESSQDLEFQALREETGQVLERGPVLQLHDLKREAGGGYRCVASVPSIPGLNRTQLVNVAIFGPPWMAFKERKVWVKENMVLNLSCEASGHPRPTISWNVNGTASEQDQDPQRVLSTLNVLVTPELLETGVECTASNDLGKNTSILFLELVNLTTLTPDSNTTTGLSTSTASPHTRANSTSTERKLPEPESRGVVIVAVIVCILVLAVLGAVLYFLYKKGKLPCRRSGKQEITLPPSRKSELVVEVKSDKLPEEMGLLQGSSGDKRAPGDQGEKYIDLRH
Experimental: as §1, §2

[7] = biological target: T2, human MCAM V340A mutant (V5/HIS6) on …; test: as above
Experimental: as §1, §2

B1: mouse anti-human MCAM monoclonal antibody clone 1415.1.1 (antibody, V domains shown)
VH: QVQLQQPGAELVQPGAPVKLSCKASGYIFTSYWMNWVKQRPGRGLEWIGRIDPSDSKIHYNQKFKDKATLTVDRSSSTAYIQLGSLTSEDSAVYYCAKEGGLRRGDYAMDYWGQGTSVTVSS
VL: DIVMTQSPATLSVTPGDRVSLSCRASQSISDYLHWYQQKSHESPRLLIKYASQSISGIPSRFSGSGSGSDFTLSINSVEPEDVGVYYCQNGHNFPRTFGGGTKLEIK
notes: Mouse hybridoma monoclonal
- binding result [1]: binds

B2: mouse anti-human MCAM monoclonal antibody clone 1174.1.3 (antibody, V domains shown)
VH: QIQLVQSGPELKKPGETVKISCKASGYTFTNYGMNWVKQAPGKGLKWMGWINTYTGEPTYADDFKGRFALSLETSASTAYLQINNLKNEDMATYFCARYRYNKYERAMDYWGQGTSVTVSS
VL: DIVLTQSPASLAVSLGQRATISCRASKSVSTSGYSYMYWYQQKPGQPPKLLIYLASNLESGVPARFSGSGSGTDFTLNIHPVEEEDAATYYCQHSRELPFTFGSGTKLEIK
notes: Mouse hybridoma monoclonal
- binding result [1]: binds

B3: mouse anti-human MCAM monoclonal antibody clone 1414.1.2 (antibody, V domains shown)
VH: EIQLQQTGPELVKPGASVKISCKASGYSFTDYIMLWVKQSHGKSLEWIGNINPYSGSSGYNLKFKGKATLTVDKSSSTAYMQLNSLTSEDSAVYYCARGKDFAMDYWGQGTSVTVSS
VL: DIVMSQSPSSLAVSAGEKVTMSCKSSQSLLNSSTRKNFLAWYQQKPGQSPKLLIYWASTRESGVPDRFTGSGSGTDFTLTISSVQAEDLAVYYCKQSYNRYTFGGGTKLEIK
notes: Mouse hybridoma monoclonal
- binding result [1]: binds

B4: mouse anti-human MCAM monoclonal antibody clone 1749.1.3 (antibody, V domains shown)
VH: DVKLVESGGDLVKPGGSLKLSCAASGFTFSSYIMSWVRQTPEKRLEWVATISSGGSSTYYPDSVKGRFTISRDNAKNTLYLQMSSLKSEDTAMYYCTRDDDYDVKVFAYWGQGTLVTVSA
VL: DIVMSQSPSSLAVSAGEKVTMNCKSSRSLLNSRIRKNYLAWYQQKPGQSPKLLIYWASTRESGVPDRFTGSGSGTDFTLTISSVQAEDLAVYYCKQSYNLLTFGAGTKLELK
notes: Mouse hybridoma monoclonal; also called m1749
- binding result [2]: no binding (tested: <30% WT; 0.5 µg/mL antibody)
- mean reactivity (% of wild type MCAM) [3]: 9.3 % of WT
- mean reactivity (% of wild type MCAM) [4]: 7.1 % of WT
- mean reactivity (% of wild type MCAM) [5]: 7.6 % of WT
- mean reactivity (% of wild type MCAM) [6]: 13.7 % of WT
- mean reactivity (% of wild type MCAM) [7]: 8.7 % of WT
